This assay addresses nine-person peanut-specific IgE antibody pool. Put plainly: competitive ELISA inhibition, pooled serum IgE on coated crude peanut. In general terms: ELISA stands for enzyme-linked immunosorbent assay.

B1: Ara h 2 (purified from peanut) (protein)
chain: QQWELQGDRRCQSQLERANLRPCEQHLMQKIQRDEDSYERDPYSPSQDPYSPSPYDRRGAGSSQHQERCCNELNEFENNQRCMCEALQQIMENQSDRLQGRQQEQQFKRELRNLPQQCGLRAPQRCDLDVESGGRDRY
modifications: 20% carbohydrate
B1 had an IC50 of 0.4 ng/mL.

The IC50 is the midpoint of a concentration-inhibition curve.
